Series [1] has as its target T1, GST-HbCBF1 (Hevea brasiliensis, UniProt Q4KP31 1-231). Briefly: EMSA; 10 mM Tris-HCl pH 7.5, 100 mM KCl, 10% glycerol, 1 mM DTT, 0.1% NP-40, 1 mM spermidine, 0.5 ug fish sperm DNA, 4 ug protein, 1 ng probe, 25 C. As to conditions: protein: recombinant; tags: N-terminal GST (pGEX-6p-1); label: 5'-digoxigenin (hot probe); blunt.
Series [2] concerns the target T1, GST-HbCBF1. Briefly: competition EMSA; 125-fold molar excess cold competitor vs COR15a probe; 10 mM Tris-HCl pH 7.5, 100 mM KCl, 10% glycerol, 1 mM DTT, 0.1% NP-40, 1 mM spermidine, 0.5 ug fish sperm DNA, 4 ug protein, 1 ng probe, 25 C. As to conditions: protein: recombinant; tags: N-terminal GST (pGEX-6p-1); blunt.

T1 sequence (Q4KP31 entry or part of it): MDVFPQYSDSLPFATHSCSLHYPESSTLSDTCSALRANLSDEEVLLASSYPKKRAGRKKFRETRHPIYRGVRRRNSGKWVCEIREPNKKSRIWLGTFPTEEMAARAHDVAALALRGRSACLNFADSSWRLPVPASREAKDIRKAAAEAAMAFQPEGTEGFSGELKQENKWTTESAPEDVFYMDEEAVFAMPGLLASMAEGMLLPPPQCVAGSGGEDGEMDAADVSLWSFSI

B1: COR15a (dsDNA)
DNA 1: TTTCATGGCCGACCTGCTTTTTT
DNA 2: AAAAAAGCAGGTCGGCCATGAAA
For B1, in the series with GST-HbCBF1 [1], the binding result is recorded as “binds”.

B2: COR15b (dsDNA)
DNA 1: CTGATGGCCGACCTCTTTTTT
DNA 2: AAAAAAGAGGTCGGCCATCAG
Regarding B2, the binding result with GST-HbCBF1 [2] is recorded as “binds”.

B3: RD29b (dsDNA)
DNA 1: CTACCGACATGAGTTCCAAAAAA
DNA 2: TTTTTTGGAACTCATGTCGGTAG
On to B3, for which the binding result with GST-HbCBF1 [2] is on record as “binds”.

B4: RD29a (dsDNA)
DNA 1: ATATACTACCGACATGAGTTCT
DNA 2: AGAACTCATGTCGGTAGTATAT
Take B4: in the series with GST-HbCBF1 [2], the binding result is given as “binds”.

The values above are taken from paper PMC4567348, “Functional Characterization of Hevea brasiliensis CRT/DRE Binding Factor 1 Gene Revealed Regulation Potential in the CBF Pathway of Tropical Perennial Tree”.
